Each block holds one molecule with its values, some of them ahead of it.
Experiments:
[1] = biological target: Flt4 receptor tyrosine kinase (VEGFR-3) expressed on cells (human) (UniProt P35916); test: Scatchard analysis with 125I-labelled VEGF-C ΔNΔCHis (cell binding, PAE/VEGFR-3 cells)
[2] = biological target: T1, 32 kD VEGF-C polypeptide (amino acids 32-227 of prepro-VEGF-C) (human, UniProt P49767 32-227); test: non-reducing and reducing SDS-PAGE of immunoprecipitates
T1 construct: also called 32 kD form; 31 kD
T1 sequence: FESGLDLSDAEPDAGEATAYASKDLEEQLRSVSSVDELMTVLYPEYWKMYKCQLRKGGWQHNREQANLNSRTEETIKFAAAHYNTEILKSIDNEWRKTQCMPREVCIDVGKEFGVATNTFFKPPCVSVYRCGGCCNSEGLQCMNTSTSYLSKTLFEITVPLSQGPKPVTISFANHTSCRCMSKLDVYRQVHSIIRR
Method: The immunoprecipitates from each cell culture were subjected to SDS-PAGE under non-denaturing conditions (FIG. 6B). Bands 1-6 were cut out from the gel, soaked for 30 minutes in 1×gel-loading buffer containing 200 mM β-mercaptoethanol, and individually subjected to SDS-PAGE under denaturing conditions (FIGS. 6A and 6C, lanes 1-6).

[3] = biological target: T2, recombinant Flt4 extracellular domain with C-terminal 6xHis tag (baculovirus), coupled to Sepharose (human, UniProt P35916 25-775); test: depletion with Flt4EC affinity matrix, read out by VEGFR-2 phosphorylation
T2 construct: extracellular domain; also called Flt4EC; Flt4 EC
T2 sequence: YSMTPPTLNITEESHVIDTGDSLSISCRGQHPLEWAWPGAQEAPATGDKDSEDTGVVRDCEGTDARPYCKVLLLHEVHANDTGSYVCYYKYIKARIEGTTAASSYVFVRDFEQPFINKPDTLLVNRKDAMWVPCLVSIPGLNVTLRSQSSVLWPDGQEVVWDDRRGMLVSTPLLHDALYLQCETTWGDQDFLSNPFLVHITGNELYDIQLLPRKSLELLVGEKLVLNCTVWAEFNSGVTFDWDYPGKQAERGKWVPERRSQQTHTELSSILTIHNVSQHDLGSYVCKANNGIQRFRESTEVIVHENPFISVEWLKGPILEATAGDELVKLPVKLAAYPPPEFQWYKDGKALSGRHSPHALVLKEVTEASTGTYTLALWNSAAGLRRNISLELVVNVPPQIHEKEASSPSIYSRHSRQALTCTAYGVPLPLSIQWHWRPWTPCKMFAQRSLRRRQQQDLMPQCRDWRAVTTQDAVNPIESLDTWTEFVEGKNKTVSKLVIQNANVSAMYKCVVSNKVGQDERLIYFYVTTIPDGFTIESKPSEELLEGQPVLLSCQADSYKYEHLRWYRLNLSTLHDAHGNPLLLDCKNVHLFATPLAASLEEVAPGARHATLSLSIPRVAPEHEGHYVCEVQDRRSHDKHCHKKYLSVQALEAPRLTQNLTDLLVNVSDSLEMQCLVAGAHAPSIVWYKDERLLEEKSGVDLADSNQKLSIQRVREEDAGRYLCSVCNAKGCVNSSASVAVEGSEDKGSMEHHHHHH

- Kd [1]: 135 pM
Molecule: VEGF-C ΔNΔCHis (from UniProt P49767 103-225) (ligand)

- binding result [2]: binds
B1: 29 kD VEGF-C polypeptide (beginning with amino acid 228 of prepro-VEGF-C) (other)
chain: SLPATLPQCQAANKTCPTNYMWNNHICRCLAQEDFMFSSDAGDDSTDGFHDICGPNKELDEETCQCVCRAGLRPASCGPHKELDRNSCQCVCKNKLFPSQCGANREFDENTCQCVCKRTCPRNQPLNPGKCACECTESPQKCLLKGKKFHHQTCSCYRRPCTNRQKACEPGFSYSEEVCRCVPSYWKRPQMS
notes: C-terminal propeptide; also called 29 kD component; 29 kD form

- binding result [3]: no binding (tested: 50 ng/ml)
B2: recombinant human VEGF165 (ligand)
chain: APMAEGGGQNHHEVVKFMDVYQRSYCHPIETLVDIFQEYPDEIEYIFKPSCVPLMRCGGCCNDEGLECVPTEESNITMQIMRIKPHQGQHIGEMSFLQHNKCECRPKKDRARQENPCGPCSERRKHLFVQDPQTCKCSCKNTDSRCKARQLELNERTCRCDKPRR
notes: Bought protein; also called recombinant human VEGF (R&D Systems)
